According to patent US20160280784A1, “Antibodies Directed to GPNMB and Uses Thereof” (Celldex Therapeutics, Inc., priority 2009, published 2016):

Key:
[1] = system: patients with locally advanced or metastatic breast cancer; experiment: Phase I/II study of CDX-011, preliminary 18 patients: toxicity and dose escalation; assay type: in vivo, human
Protocol: (§1) There was no limit to the number of prior regimens.
(§2) For Phase I dose escalation studies, the starting dose was 1.34 mg/kg IV every three weeks (q3w). Sequential dose cohorts (n=3) were enrolled based on tolerability. The cap was set at 1.88 mg/kg IV q3w.
The toxicity results are shown below in Table 34. All treatment-emergent adverse events are shown in the table, regardless of attribution.

[2] = system: patients with locally advanced or metastatic breast cancer; experiment: Phase I/II study of CDX-011, preliminary 18 patients: tumor response; assay type: in vivo, human
Protocol: as §1, §2

[3] = system: patients with locally advanced or metastatic breast cancer; experiment: Phase II study (n = 42): tolerability of CR011-vcMMAE (CDX-011); assay type: in vivo, human
Excerpt: (§3) For the Phase II Simon Two-Stage study, the primary endpoint was set at progression-free rate at 12 weeks. The following statistical assumptions were used p0=10%; p1=30%; α=β=0.10; first stage included sixteen patients; and if two or more patients were progression-free at 12 weeks, the total enrollment would increase to 25.
In particular, the treated patients (n=42) received a mean of 3.5 (range 1-8) cycles of treatment during this study. Four patients discontinued treatment due to adverse events (neuropathy, rash, dermatologic bullae and acute renal failure). Dose-escalation dose-limiting toxicities (DLTs) were limited to two cases of neuropathy (at the 1.34 mg/kg dose). After revision of the protocol to exclude pre-existing neuropathy ≧Grade 2, no further DLT occurred.

[4] = system: patients with locally advanced or metastatic breast cancer; experiment: Phase II Simon Two-Stage study / Phase II dose: anti-tumor activity (RECIST); assay type: in vivo, human; conditions: for Median PFS: Phase II Dose 1.88 mg/kg
Protocol: as §3
Additional measures of anti-tumor activity were evaluated for the patients in this further study.

[5] = system: GPNMB-expressing breast cancer cells; experiment: growth / killing of GPNMB-expressing breast cancer cells in vitro; assay type: cell-based
[6] = system: melanoma; conditions: melanoma patients; cited from earlier work
[7] = 18 patients, regardless of attribution
[8] = All Patients (n = 42), potentially related to CDX-011
[9] = one patient with triple-negative disease, strongly positive stromal GPNMB expression

glembatumumab vedotin [CDX-011]
tolerability in dose escalation ([1]; 1.88 mg/kg IV q3w): tolerated
Alopecia, Total [1, 7]: 9 (50%) n (%)
Anorexia, Grade 3 [1, 7]: 0 (0%) n (%)
Anorexia, Grade 4 [1, 7]: 0 (0%) n (%)
Anorexia, Total [1, 7]: 5 (28%) n (%)
Any Event, Grade 3 [1, 7]: 10 (56%) n (%)
Any Event, Grade 4 [1, 7]: 0 (0%) n (%)
Any Event, Total [1, 7]: 18 (100%) n (%)
Constipation, Grade 3 [1, 7]: 0 (0%) n (%)
Constipation, Grade 4 [1, 7]: 0 (0%) n (%)
Constipation, Total [1, 7]: 6 (33%) n (%)
Cough, Grade 3 [1, 7]: 1 (6%) n (%)
Cough, Grade 4 [1, 7]: 0 (0%) n (%)
Cough, Total [1, 7]: 6 (33%) n (%)
Diarrhea, Grade 3 [1, 7]: 0 (0%) n (%)
Diarrhea, Grade 4 [1, 7]: 0 (0%) n (%)
Diarrhea, Total [1, 7]: 5 (28%) n (%)
Dizziness, Grade 3 [1, 7]: 0 (0%) n (%)
Dizziness, Grade 4 [1, 7]: 0 (0%) n (%)
Dizziness, Total [1, 7]: 4 (22%) n (%)
Dysgeusia, Grade 3 [1, 7]: 0 (0%) n (%)
Dysgeusia, Grade 4 [1, 7]: 0 (0%) n (%)
Dysgeusia, Total [1, 7]: 4 (22%) n (%)
Fatigue, Grade 3 [1, 7]: 1 (6%) n (%)
Fatigue, Grade 4 [1, 7]: 0 (0%) n (%)
Fatigue, Total [1, 7]: 9 (50%) n (%)
Fever, Grade 3 [1, 7]: 0 (0%) n (%)
Fever, Grade 4 [1, 7]: 0 (0%) n (%)
Fever, Total [1, 7]: 5 (28%) n (%)
Nausea, Grade 3 [1, 7]: 1 (6%) n (%)
Nausea, Grade 4 [1, 7]: 0 (0%) n (%)
Nausea, Total [1, 7]: 8 (44%) n (%)
Neuropathy, Grade 3 [1, 7]: 2 (11%) n (%)
Neuropathy, Grade 4 [1, 7]: 0 (0%) n (%)
Neuropathy, Total [1, 7]: 7 (39%) n (%)
Neutropenia, Grade 3 [1, 7]: 3 (17%) n (%)
Neutropenia, Grade 4 [1, 7]: 0 (0%) n (%)
Neutropenia, Total [1, 7]: 5 (28%) n (%)
Pain, Gastrointestinal, Grade 3 [1, 7]: 1 (6%) n (%)
Pain, Gastrointestinal, Grade 4 [1, 7]: 0 (0%) n (%)
Pain, Gastrointestinal, Total [1, 7]: 6 (33%) n (%)
Pain, Musculoskeletal, Grade 3 [1, 7]: 1 (6%) n (%)
Pain, Musculoskeletal, Grade 4 [1, 7]: 0 (0%) n (%)
Pain, Musculoskeletal, Total [1, 7]: 5 (28%) n (%)
Pruritus, Grade 3 [1, 7]: 0 (0%) n (%)
Pruritus, Grade 4 [1, 7]: 0 (0%) n (%)
Pruritus, Total [1, 7]: 3 (17%) n (%)
Rash, Grade 3 [1, 7]: 1 (6%) n (%)
Rash, Grade 4 [1, 7]: 0 (0%) n (%)
Rash, Total [1, 7]: 11 (61%) n (%)
Vomiting, Grade 3 [1, 7]: 0 (0%) n (%)
Vomiting, Grade 4 [1, 7]: 0 (0%) n (%)
Vomiting, Total [1, 7]: 7 (39%) n (%)
dose-limiting toxicity ([1]; first two patients enrolled at 1.34 mg/kg IV q3w, both had baseline neuropathy): dose-limiting worsening of peripheral sensory neuropathy
patients discontinued for an adverse event ([1]; of 18 patients treated, one for neuropathy and one for rash): two
tumor shrinkage ([2]; initial results from a phase I/II trial, metastatic breast cancer): tumor shrinkage was observed
confirmed partial response ([2]; of the 18 patients): one
patients with at least a partial response ([2]; of the 18 patients): three
tumor shrinkage observed ([2]; of the 18 patients (50%)): 9 patients
maximum tumor reduction ([2]; one patient, ER+/PR+/HER2+, partial response after two cycles, confirmed 6 weeks later, treatment for over 5 months): 42%
reduction in target lesions (partial response, CT) ([2]; one patient, ER+/PR+/HER2−, GPNMB positive biopsy, after two cycles): 51%
clinical outcome ([2]; one patient, triple negative, skull metastases, following two cycles, resolution of mental nerve paresis and discontinuation of analgesics): marked clinical improvement
reduction in target lesions (partial response, CT) ([2]; one patient, triple negative, after four cycles): 34%
tolerability ([3]; 1.88 mg/kg IV q3w, patients with advanced breast cancer): well-tolerated
Alopecia, Total [3, 8]: 14 (33%) n (%)
Anemia, Total [3, 8]: 10 (24%) n (%)
Asthenia, Grade 3 [3, 8]: 2 (5%) n (%)
Asthenia, Total [3, 8]: 3 (7%) n (%)
Fatigue, Grade 3 [3, 8]: 2 (5%) n (%)
Fatigue, Total [3, 8]: 20 (48%) n (%)
Nausea, Grade 3 [3, 8]: 2 (5%) n (%)
Nausea, Total [3, 8]: 19 (45%) n (%)
Neuropathy, Grade 3 [3, 8]: 1 (2%) n (%)
Neuropathy, Total [3, 8]: 10 (24%) n (%)
Neutropenia, Grade 3 [3, 8]: 8 (19%) n (%)
Neutropenia, Total [3, 8]: 12 (29%) n (%)
Rash, Grade 3 [3, 8]: 2 (5%) n (%)
Rash, Total [3, 8]: 19 (45%) n (%)
Vomiting, Grade 3 [3, 8]: 1 (2%) n (%)
Vomiting, Total [3, 8]: 12 (29%) n (%)
serious adverse events potentially related ([3]; all single cases at the Phase II dose): intractable vomiting/nausea, dermatologic bullae and acute renal failure
dose-escalation dose-limiting toxicities (DLTs) ([3]; at the 1.34 mg/kg dose): two
patients discontinued treatment due to adverse events ([3]; n=42, neuropathy, rash, dermatologic bullae and acute renal failure): Four
most common adverse event reported ([3]; patients treated with CR011-vcMMAE): Rash
Median PFS ([4]; all patients): 9.1 weeks
Median PFS ([4]; Expressing GPNMB): 18.3 weeks
Median PFS ([4]; Triple-negative disease): 17.9 weeks
outcomes by expression of GPNMB ([4]; heavily pretreated advanced breast cancer patients): associated with improved outcomes
duration partial response was maintained [4, 9]: ≥ 23 weeks
tumor shrinkage (partial response) [4, 9]: 53%
patients without progression at 12 weeks (primary efficacy endpoint) ([4]; out of 26 patients): at least 9 patients
killing of GPNMB-expressing breast cancer cells [5]: selectively killed
growth of GPNMB-expressing breast cancer cells ([5]; in vitro): effectively inhibits the growth
clinical activity [6]: clinical activity
tolerability [6]: well tolerated
